The conditions of this data set: Escherichia coli (strain K12); pH 7.8; 25 °C; Urea; CD; Potassium phosphate 10 mM; transition: 3; reversible: yes (>90%); whole UniProt chain shown.

Values joined by “and” are separate entries in the source; they are usually repeats but may differ in a detail not shown here. Identical values can stand only once.

B1: Tryptophan synthase alpha chain wild type, P0A877 (protein)
chain: MERYESLFAQLKERKEGAFVPFVTLGDPGIEQSLKIIDTLIEAGADALELGIPFSDPLADGPTIQNATLRAFAAGVTPAQCFEMLALIRQKHPTIPIGLLMYANLVFNKGIDEFYAQCEKVGVDSVLVADVPVEESAPFRQAALRHNVAPIFICPPNADDDLLRQIASYGRGYTYLLSRAGVTGAENRAALPLNHLVAKLKEYNAAPPLQGFGISAPDQVKAAIDAGAAGAISGSAIVKIIEQHINEPEKMLAALKVFVQPMKAATRS
Regarding B1, the denaturant m value was 2.2 kcal/mol/M and 1.2 kcal/mol/M; the “denaturant midpoint (higher = more stable)” value is 2.62 M and 4.18 M; the unfolding free energy was 5.7 kcal/mol and 5 kcal/mol.

The values are drawn from FireProtDB (doi:10.1021/bi00358a035).
